Experimental data as given in patent publication US20130274185A1, “Pharmaceutical for Pseudo-Exercise Therapy” (THE UNIVERSITY OF TOKYO, priority 2010, published 2013).
Entries after “also recorded” stand apart in the source; their conditions may differ.

Key:
C2C12 myocytes [1] = assay: Mitochondrial content assay in C2C12 myocytes; format: cell-based, mouse
Experimental: (§1) The mouse C2C12 myoblasts were grown in 90% Dulbecco's modified high glucose Eagle's medium containing 10% (v/v) fetal bovine serum. When the cells reached 80% confluent, the myoblasts were induced to differentiate into myocytes by replacing the medium with a low serum differentiation medium (98% Dulbecco's modified high glucose Eagle's medium, 2.5% (v/v) horse serum). The medium was changed daily. The C2C12 cells were transfected by using Pofectamine 2000 (Invitrogen) and following the manufacturer's instructions.
Mitochondrial content assays were carried out as described in the following document (Cell Metab. 4, 75-87 (2006)), with slight modifications. Quantification of the mitochondrial content was conducted by using mtDNA and MitoTracker Green probe (Molecular Probes) according to the method as described in the following document (Obes. Res. 13, 574-581 (2005)). MitoTracker Green probe preferentially accumulates in mitochondria regardless of the mitochondrial membrane potential and provides an accurate assessment of mitochondrial mass. Cells were washed with PBS and after addition of 100 nM MitoTracker Green FM (Molecular Probes), incubated at 37° C. for 30 min. Cells were harvested by using trypsin/EDTA and resuspended in PBS. Fluorescence intensity was detected with excitation and emission wavelengths of 490 and 516 nm, respectively, and the values thus measured were corrected for total protein (mg/ml).

[2] = Plasma adiponectin level after intravenous adiponectin injection; format: in vivo, mice; conditions: 30 μg recombinant murine adiponectin per 10 g body weight, intravenously
Excerpt: (§2) Mouse full-length adiponectin was generated as described in the following documents (Nature Med. 8, 1288-1295 (2002); Nature Med. 7, 941-946 (2001); Nature 423, 762-769 (2003)).

PGC-1α (Ppargc1a) = PGC-1α (Ppargc1a) expression in C2C12 myocytes; format: cell-based, mouse; conditions: C2C12 myocytes, adiponectin 10 μg/ml 1.5 hours
Experimental: (§3) Real-time PCR was carried out according to the method described in the following documents (Nature Med. 13, 332-339 2007); Nature 423, 762-769 (2003); J. Biol. Chem. 281, 8748-8755 (2006)). Total RNA was prepared from cells or tissues by using Trizol (Invitrogen) according to the manufacturer's instructions. Quantification of mRNA was conducted using a real-time PCR method (Nature 423, 762-769 (2003)) with slight modifications. The procedures used for immunoblotting are described in the following documents (Nature Med. 7, 941-946 (2001); J. Biol. Chem. 281, 26602-26614 (2006); J. Biol. Chem. 281, 8748-8755 (2006)). The livers or muscles were freeze-clamped in liquid nitrogen in situ (Nature Med. 7, 941-946 (2001); J. Biol. Chem. 281, 26602-26614 (2006); J. Biol. Chem. 281, 8748-8755 (2006)).
as §1

C2C12 myocytes [3] = assay: NAD+/NADH measurements in C2C12 myocytes; format: cell-based, mouse
Experimental: NAD^+ and NADH nucleotides were directly measured by the method described in the following document (Nature, 458, 1056-1060 (2009)). Whole skeletal muscles or two 10 cm dishes of C2C12 myocytes were homogenized in 200 μl of an acid extraction buffer to measure the NAD^+ concentration, or 200 μl of alkali extraction to obtain the NADH concentration. Next, homogenates were neutralized and the concentration of nucleotides was measured fluorimetrically after an enzymatic cycling reaction using 5 μl of a sample. Values for both nucleotides were detected within the linear range. NAD^+/NADH ratios were calculated by comparing the ratios obtained from each animal or from parallel cell dishes in each experiment.

CaMKI [4] = assay: CaMKI phosphorylation in skeletal muscle in vivo; parameters: species or system mice; conditions: 30 μg per 10 g body weight, 5 min
Excerpt: as §2

AMPK = AMPK phosphorylation in vivo (skeletal muscle and liver); parameters: species or system mice; conditions: 30 μg per 10 g body weight, 10 min
Experimental: as §2, §3

CaMKI [5] = assay: CaMKI phosphorylation in C2C12 myocytes; format: cell-based, mouse; conditions: adiponectin 30 μg/ml, 0-20 min
Experimental: as §1

C2C12 myocytes [6] = assay: Calcium imaging in C2C12 myocytes (fura-2); format: cell-based, mouse
Experimental: C212 myocytes cultured on glass base dishes (IWAKI) were treated with 2.5 μM fura-2/AM for 30 min. Fluorescence was measured with an Aquacosmos Calcium Imaging system (Hamamatsu Photonics). Ligands were delivered through the superfusing Ringer's solution (140 mM NaCl, 5.6 mM KCl, 5 mM HEPES, 2.0 mM sodium pyruvate, 1.25 mM KH2PO4, 2.0 mM CaCl2, 2.0 mM MgCl2, 9.4 mM D-glucose (pH 7.4)). For the calcium chelating experiment, EGTA solution (140 mM NaCl, 5.6 mM KCl, 5 mM HEPES, 2.0 mM sodium pyruvate, 1.25 mM KH2PO4, 2.0 mM MgCl2, 5.0 mM EGTA-2Na, 9.4 mM D-glucose (pH 7.4) was used for the bath solution. Fura-2 fluorescence ratios were calibrated to calcium ion signals.

[7] = C2C12 myocytes, 30 μg/ml adiponectin

B1: adiponectin (protein, UniProt Q60994 1-247, looked up)
chain: MLLLQALLFLLILPSHAEDDVTTTEELAPALVPPPKGTCAGWMAGIPGHPGHNGTPGRDGRDGTPGEKGEKGDAGLLGPKGETGDVGMTGAEGPRGFPGTPGRKGEPGEAAYVYRSAFSVGLETRVTVPNVPIRFTKIFYNQQNHYDGSTGKFYCNIPGLYYFSYHITVYMKDVKVSLFKKDKAVLFTYDQYQEKNVDQASGSVLLHLEVGDQVWLQVYGDGDHNGLYADNVNDSTFTGFLLYHDTN
modifications: full-length
notes: adipokine, internal ligand of adiponectin receptor 1; recombinant murine full-length adiponectin
- mitochondrial biogenesis (C2C12 myocytes [1]; C2C12 myocytes expressing PGC-1α-R13 mutant): failed to further induce mitochondrial biogenesis
- amount of mitochondria as assessed by MitoTracker green (C2C12 myocytes [1]; [7]): increased
- mitochondrial DNA content (C2C12 myocytes [1]; [7]): increased a mitochondrial DNA content
- plasma adiponectin levels [2]: approximately 30 μg/ml
- PGC-1α expression (PGC-1α (Ppargc1a)): increase in PGC-1α expression
- NAD+ and NADH contents (C2C12 myocytes [3]): increased
- NAD+/NADH ratio (C2C12 myocytes [3]): increased a NAD^+/NADH ratio; also recorded: increased the NAD^+/NADH ratio
- phosphorylation of CaMKI in skeletal muscle in vivo (CaMKI [4]): significantly increased
- phosphorylation of AMPK in liver (AMPK; both genotypes): increased the phosphorylation of AMPK in the liver of both genotypes
- phosphorylation of AMPK in skeletal muscle (AMPK; control littermates): increased the phosphorylation of AMPK in the muscle of control littermates
- CaMKI phosphorylation (CaMKI [5]): rapid, robust, and transient increase
- dose dependence of calcium response (C2C12 myocytes [6]): dose-dependent responses
- intracellular calcium ion concentration (fura-2) (C2C12 myocytes [6]; adiponectin 30 μg/ml): increased an intracellular calcium ion concentration
